Assay results: doi:10.1101/467969 (bioRxiv, 2018)

Target: the molecule itself
Assay: cryo-EM structure

B1: mouse TRPC5 construct lacking the C-terminal 210 residues (a.a. 1-765) (domain or fragment, UniProt Q9QX29 1-765, looked up)
chain: MAQLYYKKVNYSPYRDRIPLQIVRAETELSAEEKAFLSAVEKGDYATVKQALQEAEIYYNVNINCMDPLGRSALLIAIENENLEIMELLLNHSVYVGDALLYAIRKEVVGAVELLLSYRKPSGEKQVPTLMMDTQFSEFTPDITPIMLAAHTNNYEIIKLLVQKRVTIPRPHQIRCNCVECVSSSEVDSLRHSRSRLNIYKALASPSLIALSSEDPILTAFRLGWELKELSKVENEFKAEYEELSQQCKLFAKDLLDQARSSRELEIILNHRDDHSEELDPQKYHDLAKLKVAIKYHQKEFVAQPNCQQLLATLWYDGFPGWRRKHWVVKLLTCMTIGFLFPMLSIAYLISPRSNLGLFIKKPFIKFICHTASYLTFLFMLLLASQHIVRTDLHVQGPPPTVVEWMILPWVLGFIWGEIKEMWDGGFTEYIHDWWNLMDFAMNSLYLATISLKIVAYVKYNGSRPREEWEMWHPTLIAEALFAISNILSSLRLISLFTANSHLGPLQISLGRMLLDILKFLFIYCLVLLAFANGLNQLYFYYETRAIDEPNNCKGIRCEKQNNAFSTLFETLQSLFWSVFGLLNLYVTNVKARHEFTEFVGATMFGTYNVISLVVLLNMLIAMMNNSYQLIADHADIEWKFARTKLWMSYFDEGGTLPPPFNIIPSPKSFLYLGNWFNNTFCPKRDPDGRRRRHNLRSFTERHADSLIQNQHYQEVIRNLVKRYVAAMIRNSKTNEGLTEENFKELKQDISSFRYEVLDLLGNRK
stoichiometry N: 4
